Molecular target: the molecule itself
Assay: cryo-EM structure; FAS1-His6 and FAS2 co-expressed and purified as one complex; 1-2 mg/ml in TBS (50 mM Tris pH 7.4, 150 mM NaCl) on holey gold grids; WT apo or with acetyl-CoA, malonyl-CoA and NADPH; mutants with substrates; D3 symmetrised maps; for H1564A and H740A also symmetry expansion, signal subtraction and focused classification

B1: S. cerevisiae fatty acid synthase FAS2 polypeptide (α-chain), wild type (enzyme)
chain: MKPEVEQELAHILLTELLAYQFASPVRWIETQDVFLKDFNTERVVEIGPSPTLAGMAQRTLKNKYESYDAALSLHREILCYSKDAKEIYYTPDPSELAAKEEPAKEEAPAPTPAASAPAPAAAAPAPVAAAAPAAAAAEIADEPVKASLLLHVLVAHKLKKSLDSIPMSKTIKDLVGGKSTVQNEILGDLGKEFGTTPEKPEETPLEELAETFQDTFSGALGKQSSSLLSRLISSKMPGGFTITVARKYLQTRWGLPSGRQDGVLLVALSNEPAARLGSEADAKAFLDSMAQKYASIVGVDLSSAASASGAAGAGAAAGAAMIDAGALEEITKDHKVLARQQLQVLARYLKMDLDNGERKFLKEKDTVAELQAQLDYLNAELGEFFVNGVATSFSRKKARTFDSSWNWAKQSLLSLYFEIIHGVLKNVDREVVSEAINIMNRSNDALIKFMEYHISNTDETKGENYQLVKTLGEQLIENCKQVLDVDPVYKDVAKPTGPKTAIDKNGNITYSEEPREKVRKLSQYVQEMALGGPITKESQPTIEEDLTRVYKAISAQADKQDISSSTRVEFEKLYSDLMKFLESSKEIDPSQTTQLAGMDVEDALDKDSTKEVASLPNKSTISKTVSSTIPRETIPFLHLRKKTPAGDWKYDRQLSSLFLDGLEKAAFNGVTFKDKYVLITGAGKGSIGAEVLQGLLQGGAKVVVTTSRFSKQVTDYYQSIYAKYGAKGSTLIVVPFNQGSKQDVEALIEFIYDTEKNGGLGWDLDAIIPFAAIPEQGIELEHIDSKSEFAHRIMLTNILRMMGCVKKQKSARGIETRPAQVILPMSPNHGTFGGDGMYSESKLSLETLFNRWHSESWANQLTVCGAIIGWTRGTGLMSANNIIAEGIEKMGVRTFSQKEMAFNLLGLLTPEVVELCQKSPVMADLNGGLQFVPELKEFTAKLRKELVETSEVRKAVSIETALEHKVVNGNSADAAYAQVEIQPRANIQLDFPELKPYKQVKQIAPAELEGLLDLERVIVVTGFAEVGPWGSARTRWEMEAFGEFSLEGCVEMAWIMGFISYHNGNLKGRPYTGWVDSKTKEPVDDKDVKAKYETSILEHSGIRLIEPELFNGYNPEKKEMIQEVIVEEDLEPFEASKETAEQFKHQHGDKVDIFEIPETGEYSVKLLKGATLYIPKALRFDRLVAGQIPTGWNAKTYGISDDIISQVDPITLFVLVSVVEAFIASGITDPYEMYKYVHVSEVGNCSGSGMGGVSALRGMFKDRFKDEPVQNDILQESFINTMSAWVNMLLISSSGPIKTPVGACATSVESVDIGVETILSGKARICIVGGYDDFQEEGSFEFGNMKATSNTLEEFEHGRTPAEMSRPATTTRNGFMEAQGAGIQIIMQADLALKMGVPIYGIVAMAATATDKIGRSVPAPGKGILTTAREHHSSVKYASPNLNMKYRKRQLVTREAQIKDWVENELEALKLEAEEIPSEDQNEFLLERTREIHNEAESQLRAAQQQWGNDFYKRDPRIAPLRGALATYGLTIDDLGVASFHGTSTKANDKNESATINEMMKHLGRSEGNPVIGVFQKFLTGHPKGAAGAWMMNGALQILNSGIIPGNRNADNVDKILEQFEYVLYPSKTLKTDGVRAVSITSFGFGQKGGQAIVVHPDYLYGAITEDRYNEYVAKVSAREKSAYKFFHNGMIYNKLFVSKEHAPYTDELEEDVYLDPLARVSKDKKSGSLTFNSKNIQSKDSYINANTIETAKMIENMTKEKVSNGGVGVDVELITSINVENDTFIERNFTPQEIEYCSAQPSVQSSFAGTWSAKEAVFKSLGVKSLGGGAALKDIEIVRVNKNAPAVELHGNAKKAAEEAGVTDVKVSISHDDLQAVAVAVSTKK
notes: Fatty acid synthase subunit alpha (FAS2 gene product), S. cerevisiae strain BJ2168, gene amplified from genomic DNA into NcoI-digested pET-15b(+); holds the ACP domain (residues 140-302), KR and KS domains; Serine 180 of the ACP domain is called the phosphopantetheine attachment site; No tag is named for FAS2; also called JWL03; holds the ACP domain; source: E. coli BL21, co-expressed with …
  binding result: binds
